The text below walks through data of the Human Domainome abundance scans (Beltran et al. 2025).

Sequences and labels used below:
B1: TGF-beta-activated kinase 1 and MAP3K7-binding protein 3, residues 12 to 50; numbered along this chain, Q8N5C8 (parent)
chain: VLHDLRQRFPEIPEGVVSQCMLQNNNNLEACCRALSQES

± gives the uncertainty stated by the source.

This data set covers variants of B1. Put plainly: abundance fitness (aPCA) (normalised: wild type 0, dead -1); higher = more abundant; growth selection in yeast, the domain comes from the species named. The following applies: Homo sapiens.
On to VLHDLRQRFPEIPEGVVSQCMLQNNNNLEACCTALSQES [R33T], for which the abundance fitness was -0.127 ± 0.056.
As for VLHDLRQRFPEIPEGVVSQCMLQNNNNLEACCGALSQES [R33G], the figure is -0.454 ± 0.048; as for VLHDLRQRFPEIPEGVVSQCMLQNNNNLEACCCALSQES [R33C], -0.451 ± 0.093; as for VLHDLRQRFPEIPEGVVSQCMLQNNNNLEAKCRALSQES [C31K], -0.513 ± 0.11.
As for VLHDLRQRFPEIPEGVVSQCMLQNNNNLEAQCRALSQES [C31Q], the figure is -0.786 ± 0.24.
Consider VLHDLRQRFPEIPEGVVSQCMLQNNNNLEADCRALSQES [C31D], for which the abundance fitness was 0.122 ± 0.26.
As for VLHDLRQRFPEIPEGVVSQCMLQNNNNLEAVCRALSQES [C31V], the figure is -0.495 ± 0.065; as for VLHDLRQRFPEIPEGVVSQCMLQNNNNLEARCRALSQES [C31R], -0.79 ± 0.072; as for VLHDLRQRFPEIPEGVVSQCMLQNNNNLEAECRALSQES [C31E], -0.467 ± 0.076.
Consider VLHDLRQRFPEIPEGVVSQCMLQNNNNLEASCRALSQES [C31S], for which the abundance fitness was -0.545 ± 0.068.
On to VLHDLRQRFPEIPEGVVSQCMLQNNNNLEAGCRALSQES [C31G], for which the abundance fitness was -0.555 ± 0.051.
As for VLHDLRQRFPEIPEGVVSQCMLQNNNNLEAICRALSQES [C31I], the figure is -0.718 ± 0.27.
The result for VLHDLRQRFPEIPEGVVSQCMLQNNNNLEAMCRALSQES [C31M] reads -0.732 ± 0.3; that for VLHDLRQRFPEIPEGVVSQCMLQNNNNLEAYCRALSQES [C31Y], -0.895 ± 0.48; that for VLHDLRQRFPEIPEGVVSQCMLQNNNNLEATCRALSQES [C31T], -0.219 ± 0.061.
As for VLHDLRQRFPEIPEGVVSQCMLQNNNNLEAWCRALSQES [C31W], the figure is -0.965 ± 0.21; as for VLHDLRQRFPEIPEGVVSQCMLQNNNNLEAACRALSQES [C31A], -0.551 ± 0.072; as for VLHDLRQRFPEIPEGVVSQCMLQNNNNLEALCRALSQES [C31L], -0.914 ± 0.17.
VLHDLRQRFPEIPEGVVSQCMLQNNNNLEAPCRALSQES [C31P]: the abundance fitness was -0.64 ± 0.13.
With VLHDLRQRFPEIPEGVVSQCMLQNNNNLEKCCRALSQES [A30K], the abundance fitness was -0.214 ± 0.072.
For VLHDLRQRFPEIPEGVVSQCMLQNNNNLEWCCRALSQES [A30W], the abundance fitness was -0.794 ± 0.1.
The result for VLHDLRQRFPEIPEGVVSQCMLQNNNNLENCCRALSQES [A30N] reads -0.174 ± 0.25; that for VLHDLRQRFPEIPEGVVSQCMLQNNNNLEECCRALSQES [A30E], -0.081 ± 0.045; that for VLHDLRQRFPEIPEGVVSQCMLQNNNNLESCCRALSQES [A30S], -0.402 ± 0.075.
The result for VLHDLRQRFPEIPEGVVSQCMLQNNNNLEVCCRALSQES [A30V] reads -0.55 ± 0.065.
Regarding VLHDLRQRFPEIPEGVVSQCMLQNNNNLEHCCRALSQES [A30H], the abundance fitness is -0.248 ± 0.17.
The result for VLHDLRQRFPEIPEGVVSQCMLQNNNNLECCCRALSQES [A30C] reads -0.684 ± 0.25; that for VLHDLRQRFPEIPEGVVSQCMLQNNNNLEQCCRALSQES [A30Q], -0.178 ± 0.07; that for VLHDLRQRFPEIPEGVVSQCMLQNNNNLEPCCRALSQES [A30P], -0.716 ± 0.14.
The result for VLHDLRQRFPEIPEGVVSQCMLQNNNNLERCCRALSQES [A30R] reads -0.348 ± 0.043; that for VLHDLRQRFPEIPEGVVSQCMLQNNNNLETCCRALSQES [A30T], -0.568 ± 0.083; that for VLHDLRQRFPEIPEGVVSQCMLQNNNNLEGCCRALSQES [A30G], -0.599 ± 0.047.
Turning to VLHDLRQRFPEIPEGVVSQCMLQNNNNLEICCRALSQES [A30I], the abundance fitness was -0.838 ± 0.18.
In the case of VLHDLRQRFPEIPEGVVSQCMLQNNNNLEMCCRALSQES [A30M], the abundance fitness is -0.178 ± 0.054.
VLHDLRQRFPEIPEGVVSQCMLQNNNNLEACCRAMSQES [L35M]: the abundance fitness was -0.879 ± 0.15.
VLHDLRQRFPEIPEGVVSQCMLQNNNNLEACCRAKSQES [L35K]: the abundance fitness is -0.808 ± 0.13.
As to VLHDLRQRFPEIPEGVVSQCMLQNNNNLEACCRACSQES [L35C], the abundance fitness was -0.6 ± 0.25.
With VLHDLRQRFPEIPEGVVSQCMLQNNNNLEACCRAPSQES [L35P], the abundance fitness was -0.488 ± 0.081.
Regarding VLHDLRQRFPEIPEGVVSQCMLQNNNNLEACCRADSQES [L35D], the abundance fitness was -0.784 ± 0.41.
In the case of VLHDLRQRFPEIPEGVVSQCMLQNNNNLEACCRAQSQES [L35Q], the abundance fitness is -0.629 ± 0.25.
As for VLHDLRQRFPEIPEGVVSQCMLQNNNNLEACCRASSQES [L35S], the figure is -0.745 ± 0.069; as for VLHDLRQRFPEIPEGVVSQCMLQNNNNLEACCRARSQES [L35R], -0.811 ± 0.071.
VLHDLRQRFPEIPEGVVSQCMLQNNNNLEACCRAWSQES [L35W]: the abundance fitness is -0.819 ± 0.089.
Regarding VLHDLRQRFPEIPEGVVSQCMLQNNNNLEACCRAASQES [L35A], the abundance fitness was -0.793 ± 0.058.
The result for VLHDLRQRFPEIPEGVVSQCMLQNNNNLEACCRAHSQES [L35H] reads -0.469 ± 0.12.
Take VLHDLRQRFPEIPEGVVSQCMLQNNNNLEACCRAVSQES [L35V]: the abundance fitness was -0.924 ± 0.1.
The result for VLHDLRQRFPEIPEGVVSQCMLQNNNNLEACCRATSQES [L35T] reads -0.603 ± 0.089.
The result for VLHDLRQRFPEIPEGVVSQCMLQNNNNLEACCRAFSQES [L35F] reads -0.697 ± 0.17.
The result for VLHDLRQRFPEIPEGVVSQCMLQNNNNLEACCRAESQES [L35E] reads -0.504 ± 0.13; that for VLHDLRQRFPEIPEGVVSQCMLQNNNNLEACPRALSQES [C32P], -0.664 ± 0.093; that for VLHDLRQRFPEIPEGVVSQCMLQNNNNLEACRRALSQES [C32R], -0.589 ± 0.06.
As for VLHDLRQRFPEIPEGVVSQCMLQNNNNLEACQRALSQES [C32Q], the abundance fitness was -0.368 ± 0.095.
In the case of VLHDLRQRFPEIPEGVVSQCMLQNNNNLEACYRALSQES [C32Y], the abundance fitness is -0.246 ± 0.064.
In the case of VLHDLRQRFPEIPEGVVSQCMLQNNNNLEACDRALSQES [C32D], the abundance fitness is -0.484 ± 0.069.
In the case of VLHDLRQRFPEIPEGVVSQCMLQNNNNLEACHRALSQES [C32H], the abundance fitness is -0.171 ± 0.15.
The result for VLHDLRQRFPEIPEGVVSQCMLQNNNNLEACSRALSQES [C32S] reads -0.226 ± 0.046; that for VLHDLRQRFPEIPEGVVSQCMLQNNNNLEACVRALSQES [C32V], 0.176 ± 0.041; that for VLHDLRQRFPEIPEGVVSQCMLQNNNNLEACFRALSQES [C32F], -0.579 ± 0.17.
Turning to VLHDLRQRFPEIPEGVVSQCMLQNNNNLEACLRALSQES [C32L], the abundance fitness was -0.291 ± 0.071.
On to VLHDLRQRFPEIPEGVVSQCMLQNNNNLEACERALSQES [C32E], for which the abundance fitness was -0.176 ± 0.057.
As for VLHDLRQRFPEIPEGVVSQCMLQNNNNLEACNRALSQES [C32N], the figure is 0.023 ± 0.15.
Take VLHDLRQRFPEIPEGVVSQCMLQNNNNLEACARALSQES [C32A]: the abundance fitness is -0.21 ± 0.045.
In the case of VLHDLRQRFPEIPEGVVSQCMLQNNNNLEACMRALSQES [C32M], the abundance fitness is -0.076 ± 0.048.
VLHDLRQRFPEIPEGVVSQCMLQNNNNLEACGRALSQES [C32G]: the abundance fitness was -0.575 ± 0.053.
